Source: patent publication US7867500B2, “Cofactor that modulates steroid receptor activities” (The United States of America as represented by the …, priority 2004, dated 2011)

T1: PPARγ2 (Homo sapiens, UniProt P37231)
T1 construct: plus VP16 fused to the indicated full length receptors; expressed in transfected cells; host or cells: CV-1
T1 sequence (P37231 1-505): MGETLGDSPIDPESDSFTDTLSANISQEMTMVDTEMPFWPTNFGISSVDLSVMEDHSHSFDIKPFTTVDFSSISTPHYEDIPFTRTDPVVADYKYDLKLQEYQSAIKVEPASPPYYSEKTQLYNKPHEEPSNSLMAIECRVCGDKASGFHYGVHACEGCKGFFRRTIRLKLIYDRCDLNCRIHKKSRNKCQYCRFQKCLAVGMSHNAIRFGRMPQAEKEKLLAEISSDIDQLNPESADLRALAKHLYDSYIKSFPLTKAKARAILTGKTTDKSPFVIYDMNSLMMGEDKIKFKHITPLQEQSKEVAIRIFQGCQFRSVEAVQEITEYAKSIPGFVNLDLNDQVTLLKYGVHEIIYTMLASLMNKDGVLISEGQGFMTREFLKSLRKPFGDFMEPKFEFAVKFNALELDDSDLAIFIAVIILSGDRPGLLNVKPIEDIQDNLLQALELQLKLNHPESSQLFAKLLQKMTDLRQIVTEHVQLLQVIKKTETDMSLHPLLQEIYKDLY

T2: RAR α (Homo sapiens, UniProt P10276)
T2 construct: plus VP16 fused to the indicated full length receptors; expressed in transfected cells; host or cells: CV-1
T2 sequence (P10276 1-462): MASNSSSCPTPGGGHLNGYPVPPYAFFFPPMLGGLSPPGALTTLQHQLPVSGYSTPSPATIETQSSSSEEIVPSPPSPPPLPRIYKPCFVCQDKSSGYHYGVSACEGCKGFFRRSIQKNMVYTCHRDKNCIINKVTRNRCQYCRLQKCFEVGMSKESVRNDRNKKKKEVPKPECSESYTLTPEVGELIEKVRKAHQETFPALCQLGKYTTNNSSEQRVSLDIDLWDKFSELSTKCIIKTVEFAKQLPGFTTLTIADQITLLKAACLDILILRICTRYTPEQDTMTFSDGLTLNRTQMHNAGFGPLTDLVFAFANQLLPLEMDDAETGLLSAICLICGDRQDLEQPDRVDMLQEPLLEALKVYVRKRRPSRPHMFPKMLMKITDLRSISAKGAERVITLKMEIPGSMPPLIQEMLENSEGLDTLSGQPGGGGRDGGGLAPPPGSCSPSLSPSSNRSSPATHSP


Tests used:
Assay type in all cases: cell-based
[1] = biological target: T3, p300 (Homo sapiens, UniProt Q09472); experiment: Mammalian two-hybrid assay with p300; settings: data not shown
T3 construct: expressed in transfected cells; host or cells: CV-1 (the same two-hybrid assay)
Protocol: These assays were conducted as described (He et al., 2002). In particular, the recommended procedure for the Mammalian Matchmaker two-hybrid assay kit (Clontech) was modified slightly by changing from a chloramphenicol acetyltransferase reporter to a Luciferase Reporter pFRLuc (Stratagene), which is under the control of five repeats of the upstream activating sequence for the binding of GAL4.

[2] = biological target: T1, PPARγ2; experiment: Mammalian two-hybrid assay with VP16 full length receptor: PPARγ2; settings: 1 μM roziglitazone
Protocol: (§1) FIG. 6C1-3 illustrate the association of STAMP with assorted steroid/nuclear receptors, including glucocorticoid receptors (GRs), progesterone receptors (PRs), androgen receptors (ARs), estrogen receptors (ER α or β), PPARγ2 receptors, thyroid receptor beta (TR), and retinoid (α) receptors (RAR α or RXR α). Triplicate samples of CV-1 cells were transfected (as described for FIG. 6B) with GAL, or GAL fused to TIF2.4 or STAMP834C, plus VP16 fused to the indicated full length receptors and incubated with the appropriate steroid (1 μM Dex, 20 nM R5020, 1 nM R1881, 0.1 μM triiodothyronine, or 1 μM estradiol, roziglitazone, or 9-cis-retinoic acid). The average relative luciferase activities of 2-3 experiments±S.E.M. were then plotted. FIG. 6C1 illustrates the effects of STAMP association upon GR, PR and AR induced expression. FIG. 6C2 illustrates the effects of STAMP association upon ERα, ERβ and PPARγ2 induced expression. FIG. 6C3 illustrates the effects of STAMP association upon TR, RARα and RXRα induced expression.
(§2) These assays were conducted as described (He et al., 2002). […]

[3] = biological target: T2, RAR α; experiment: Mammalian two-hybrid assay with VP16 full length receptor: RARα; settings: 1 μM 9-cis-retinoic acid
Protocol: as §1, §2

T3 sequence (Q09472 whole entry, species assumed): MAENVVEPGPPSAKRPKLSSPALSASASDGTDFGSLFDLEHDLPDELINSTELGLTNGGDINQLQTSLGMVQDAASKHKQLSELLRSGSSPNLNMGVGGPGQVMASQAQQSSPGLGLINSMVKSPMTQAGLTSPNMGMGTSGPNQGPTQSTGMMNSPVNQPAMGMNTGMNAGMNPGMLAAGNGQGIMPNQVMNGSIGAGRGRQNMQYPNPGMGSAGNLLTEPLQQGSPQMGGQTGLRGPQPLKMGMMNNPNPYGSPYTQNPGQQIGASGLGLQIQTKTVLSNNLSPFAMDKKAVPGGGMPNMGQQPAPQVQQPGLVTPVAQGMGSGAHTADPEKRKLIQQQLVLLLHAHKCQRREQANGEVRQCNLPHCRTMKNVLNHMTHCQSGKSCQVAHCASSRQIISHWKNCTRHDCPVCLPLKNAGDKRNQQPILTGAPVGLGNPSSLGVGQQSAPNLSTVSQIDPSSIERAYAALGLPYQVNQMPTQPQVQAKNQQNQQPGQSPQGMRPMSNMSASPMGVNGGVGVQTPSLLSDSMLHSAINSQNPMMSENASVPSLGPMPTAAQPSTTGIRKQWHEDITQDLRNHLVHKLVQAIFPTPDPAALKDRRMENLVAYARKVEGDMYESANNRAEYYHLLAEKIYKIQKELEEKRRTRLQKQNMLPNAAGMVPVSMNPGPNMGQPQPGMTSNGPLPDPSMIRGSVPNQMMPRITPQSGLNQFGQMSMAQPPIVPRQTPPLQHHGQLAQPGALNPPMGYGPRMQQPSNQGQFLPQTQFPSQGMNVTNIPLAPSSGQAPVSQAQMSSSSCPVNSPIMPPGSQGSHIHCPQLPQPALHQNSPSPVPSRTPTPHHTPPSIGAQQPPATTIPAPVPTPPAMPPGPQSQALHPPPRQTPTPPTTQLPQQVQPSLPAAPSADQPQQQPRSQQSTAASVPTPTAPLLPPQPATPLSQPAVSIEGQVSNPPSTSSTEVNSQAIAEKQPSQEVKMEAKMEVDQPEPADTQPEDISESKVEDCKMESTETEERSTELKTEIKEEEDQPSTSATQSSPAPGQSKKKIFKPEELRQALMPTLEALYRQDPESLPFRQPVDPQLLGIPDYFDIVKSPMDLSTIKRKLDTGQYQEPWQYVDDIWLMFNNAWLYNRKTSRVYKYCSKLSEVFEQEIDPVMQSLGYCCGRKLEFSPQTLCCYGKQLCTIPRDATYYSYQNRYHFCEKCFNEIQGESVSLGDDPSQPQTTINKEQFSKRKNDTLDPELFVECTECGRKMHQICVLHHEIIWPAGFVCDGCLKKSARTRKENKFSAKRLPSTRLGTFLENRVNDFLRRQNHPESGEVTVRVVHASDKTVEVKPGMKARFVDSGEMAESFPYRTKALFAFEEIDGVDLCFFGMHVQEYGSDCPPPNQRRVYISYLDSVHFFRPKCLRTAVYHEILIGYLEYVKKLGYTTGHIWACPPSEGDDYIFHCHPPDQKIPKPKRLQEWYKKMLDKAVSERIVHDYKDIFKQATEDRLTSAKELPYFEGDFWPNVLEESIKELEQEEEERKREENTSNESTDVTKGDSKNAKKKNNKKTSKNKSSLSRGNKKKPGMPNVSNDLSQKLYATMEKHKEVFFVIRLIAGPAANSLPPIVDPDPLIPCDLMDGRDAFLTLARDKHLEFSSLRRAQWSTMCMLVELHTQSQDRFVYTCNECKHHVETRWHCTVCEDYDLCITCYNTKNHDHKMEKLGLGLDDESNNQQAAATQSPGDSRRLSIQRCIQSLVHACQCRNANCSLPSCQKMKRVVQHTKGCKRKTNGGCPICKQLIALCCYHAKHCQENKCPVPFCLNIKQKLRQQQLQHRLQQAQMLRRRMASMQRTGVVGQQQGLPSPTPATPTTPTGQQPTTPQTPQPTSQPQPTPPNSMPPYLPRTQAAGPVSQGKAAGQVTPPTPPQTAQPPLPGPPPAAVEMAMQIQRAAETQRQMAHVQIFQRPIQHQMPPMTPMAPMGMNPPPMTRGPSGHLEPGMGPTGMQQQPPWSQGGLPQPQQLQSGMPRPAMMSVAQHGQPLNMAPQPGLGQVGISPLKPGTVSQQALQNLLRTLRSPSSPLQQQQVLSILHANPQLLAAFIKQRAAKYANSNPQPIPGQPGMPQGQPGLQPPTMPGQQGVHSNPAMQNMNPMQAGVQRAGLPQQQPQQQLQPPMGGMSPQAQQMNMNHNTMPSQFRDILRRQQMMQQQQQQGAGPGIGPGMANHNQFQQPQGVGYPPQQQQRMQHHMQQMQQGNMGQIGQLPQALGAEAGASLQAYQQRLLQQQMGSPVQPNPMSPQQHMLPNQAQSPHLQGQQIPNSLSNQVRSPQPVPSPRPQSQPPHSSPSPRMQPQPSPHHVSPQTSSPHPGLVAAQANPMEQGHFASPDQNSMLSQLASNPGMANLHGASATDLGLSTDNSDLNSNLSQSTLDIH

association with p300 [1]	interaction with PPARγ2 [2]	interaction with retinoid (α) receptor [3]	Molecule
negligible association	–	–	6-6CL1: STAMP fragment amino acids 623-834, coactivator interaction domain (CID) (protein) ENTPKENSMKVREWNNKGGHCCKLETQELEPKFNLMQILQDNGNLSKMQARIAFSAYLQHVQIRLMKDSGGQTFSASWAAKEDEQMELVVRFLKRASNNLQHSLRMVLPSRRLALLERRRILAHQLGDFIIVYNKETEQMAEKKSKKKVEEEEEDGVNMENFQEFIRQASEAELEEVLTFYTQKNKSASVFLGTHSKISKNNNNYSDSGAKG
–	lack of interaction	lack of interaction	STAMP834C: STAMP fragment amino acids 834-1277, receptor interaction domain (RID) (protein) GDHPETIMEEVKIKPPKQQQTTEIHSDKLSRFTTSAEKEAKLVYSNSSSGPTATLQKIPNTHLSSVTTSDLSPGPCHHSSLSQIPSAIPSMPHQPTILLNTVSASASPCLHPGAQNIPSPTGLPRCRSGSHTIGPFSSFQSAAHIYSQKLSRPSSAKAGSCYLNKHHSGIAKTQKEGEDASLYSKRYNQSMVTAELQRLAEKQAARQYSPSSHINLLTQQVTNLNLATGIINRSSASAPPTLRPIISPSGPTWSTQSDPQAPENHSSSPGSRSLQTGGFAWEGEVENNVYSQATGVVPQHKYHPTAGSYQLQFALQQLEQQKLQSRQLLDQSRARHQAIFGSQTLPNSNLWTMNNGAGCRISSATASGQKPTTLPQKVVPPPSSCASLVPKPPPNHEQVLRRATSQKASKGSSAEGQLNGLQSSLNPAASVPITSSTDPAHTKI
